From US20020031818A1, “Modification of Mdm2 activity” (priority 2000, published 2002)

Assays:
Mdm2 [1] = molecular target: T1, Mdm2 (Homo sapiens, UniProt Q00987); assay: In vivo sumoylation of Mdm2 in p53/Mdm2 double null cells; assay type: cell-based; set-up: expressed in transfected cells; host or cells: p53/Mdm2 double null cells; details: Flag-Mdm2, HA-SUMO, p19 wt 1.5 μg each; MG132
Method: FIGS. 10A-10D. A. Time dependent Mdm2 sumoylation in vitro. Bacterially expressed and purified GST-Mdm2 was subjected to in vitro sumoylation reaction in the presence of E1, Ubc9, and ^35S-Sumos. Reaction was terminated after 10,30,50 or 60 minutes, Proteins were separated on 8% gel, Commassie stained, dryed and exposed overnight (upper panel). Lower panel depicts Commassie blue staining of Mdm2 forms. B. A peptide corresponding to the Ubc-9 binding site on Mdm2 decreases Mdm2 in vitro sumoylation of Mdm2 in a time-dependent manner. (Upper part) The specific Ubc-9-binding site peptide or a nonspecific peptide was added to the reaction for the indicated time periods. […] The lower panel depicts a Coomassie staining visualizing relative amounts of sumoylated and non-sumoylated forms of purified GST-Mdm2. C. The Mdm2 sumoylation assay was carried out in the presence of Ubc-9-binding site peptide (mu9bs) or a nonspecific peptide ([…]) which were added to the reaction at the indicated concentrations. […] D. A peptide corresponding to the Ubc-9 binding site on Mdm2 decreases Mdm2 sumoylation in vivo. […] Immunoprecipitated Mdm2 levels were detected using 2A10 antibodies (top). […]
FIG. 13A-13E. […] (Left) Immunoprecipitated Mdm2 was detected using monoclonal Mdm2 antibodies (2A10, left). […]

Mdm2 [2] = molecular target: T1, Mdm2; assay: Pulse-chase half-life of Mdm2 wt or S218A in normal human fibroblasts; assay type: cell-based; set-up: Normal human fibroblasts (TIG) were transfected with HA-Ub and wt or mutant Ubc9 plasmids as indicated; endogenous in cells; host or cells: normal human fibroblasts (TIG)
Method: FIG. 16A-16F. A. Activation of p38 increases Mdm2 ubiquitination in vivo. EJ cells were transfected with indicated plasmids. 36 h after transfection cells were harvested and Mdm2 was immunoprecipitated (2A10 antibodies). […] Middle panels show expression levels of Mdm2 and p19^ARF. Lower panels depict phospho-and total p38 levels. B. Mutation at Ser218 of Mdm2 abolishes p38 induced Mdm2 ubiquitination. Normal human fibroblasts were transfected with indicated plasmids. 36 h after transfection cells were harvested and lysed. Mdm2 was immunoprecipitated and proteins were separated on a 8% SDS-PAGE. […] C. Mutation at Ser218 of Mdm2 abrogates p19^ARF-induced Mdm2 degradation. […] Upper panels depict Mdm2-Sumo conjugates (detected via Sumo-1 anitbodies), as well as the 75 kD and 90 kD forms of Mdm2 (detected via Mdm2 antibodies). […] To monitor possible changes in amount of p19 bound to Mdm2 association was monitored using normalized Mdm2 levels at the indicated time-points after UV-treatment.
Normal human fibroblasts (NHF) were transfected with wt or S218A forms of Mdm2 expression vectors (4 μg). ^35S-methionine (1 mCi) was added to the cell cultures 24 h after transfection for 5 h (pulse) followed by chase (2 mM cold methionine) for the indicated time points. […] Immunoprecipated Mdm2 was washed, separated on 10% SDS-PAGE, and analyzed by autoradiography.

T1 sequence (Q00987 whole entry): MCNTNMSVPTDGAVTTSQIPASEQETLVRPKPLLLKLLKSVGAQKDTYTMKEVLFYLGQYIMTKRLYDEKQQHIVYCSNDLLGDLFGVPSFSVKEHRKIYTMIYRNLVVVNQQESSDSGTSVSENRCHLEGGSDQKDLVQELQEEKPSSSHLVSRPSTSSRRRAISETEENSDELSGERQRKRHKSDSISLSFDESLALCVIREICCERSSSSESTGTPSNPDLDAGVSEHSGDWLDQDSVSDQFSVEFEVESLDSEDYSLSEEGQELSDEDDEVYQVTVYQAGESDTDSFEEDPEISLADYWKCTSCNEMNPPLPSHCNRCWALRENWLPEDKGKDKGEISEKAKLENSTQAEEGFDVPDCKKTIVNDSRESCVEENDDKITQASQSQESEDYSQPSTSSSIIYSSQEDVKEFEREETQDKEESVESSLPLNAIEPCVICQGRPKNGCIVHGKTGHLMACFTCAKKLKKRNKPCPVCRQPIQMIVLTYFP

B1: p19^ARF: Mdm2-regulating protein; in vitro translated, bacculovirus-expressed or transfected (protein)
chain: MGRRFLVTVRIQRAGRPLQERVFLVKFVRSRRPRTASCALAFVNMLLRLERILRRGPHRNPGPGDDDGQRSRSSSSAQLRCRFELRGPHYLLPPGARRSAGRLPGHAGGAARVRGSAGCARCLGSPAARLGPRAGTSRHRAIFAFRWVLFVFRWVVFVYRWERRPDRRA
Mdm2 [1]
  Mdm2 sumoylation in Mdm2/p53-/- cells upon p19ARF co-expression: reduced the degree of Mdm2 sumoylation
Mdm2 [2]
  effect on half-life of wt Mdm2: efficiently shorten Mdm2 half-life
